Data from PMC6013450, “A convenient protocol for generating giant unilamellar vesicles containing SNARE proteins using electroformation” (Scientific Reports, 2018).

Biological target: T1, syntaxin-1A (183–288) (Rattus norvegicus, UniProt P32851 183-288)
T1 construct: syntaxin-1A, Rattus norvegicus, residues 183-288, contains the transmembrane region; source: E. coli BL21 (DE3), purified (Ni-NTA, ion exchange MonoQ, buffer with 1% CHAPS)
Test: ion exchange chromatography of the assembled complex; monomers mixed overnight at 4 °C; complex purified on a MonoQ column in a buffer containing CHAPS
Conditions: both partners purified

T1 sequence (P32851 183-288): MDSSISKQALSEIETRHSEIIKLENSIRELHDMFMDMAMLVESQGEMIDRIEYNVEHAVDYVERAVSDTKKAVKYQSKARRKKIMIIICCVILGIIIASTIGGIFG

B1: synaptobrevin-2 fragment (49–96) (domain or fragment, Rattus norvegicus, UniProt P63045 49-96, looked up)
chain: NVDKVLERDQKLSELDDRADALQAGASQFETSAAKLKRKYWWKNLKMM
notes: synaptobrevin-2, Rattus norvegicus, residues 49-96; also called synaptobrevin fragment 49–96; source: E. coli BL21 (DE3), purified (Ni-NTA, ion exchange MonoS)
B1: binds.
